Measured values taken from article PMC9359109.

Tests used:
[1] = molecular target: HLA-B*27:05 class I heavy chain (HC), V5 tagged (human); assay: non-reducing two-dimensional isoelectric focusing gel electrophoresis and immunoblot of immunoprecipitates; anti-tapasin immunoprecipitates resolved by charge and then by non-reducing SDS-PAGE, immunoblot with anti-V5
[2] = molecular target: HLA-B*27:05 class I heavy chain (HC), V5 tagged (human); assay: non-reducing two-dimensional isoelectric focusing gel electrophoresis and immunoblot; 1% NP40 lysates resolved by charge in the first dimension and by non-reducing SDS-PAGE in the second, immunoblot with anti-V5; monomers and dimers compared by pI
[3] = molecular target: HLA-B*27:05 single chain trimer (SCT): NP 383-391 peptide - linker - human beta-2 microglobulin - linker - HLA-B*27:05 heavy chain - V5 (influenza virus | human); assay: non-reducing two-dimensional isoelectric focusing gel electrophoresis and immunoblot of immunoprecipitates; anti-tapasin immunoprecipitates resolved by charge and then by non-reducing SDS-PAGE, immunoblot with anti-V5
[4] = molecular target: HLA-B*27:05 single chain trimer (SCT): NP 383-391 peptide - linker - human beta-2 microglobulin - linker - HLA-B*27:05 heavy chain - V5 (influenza virus | human); assay: non-reducing two-dimensional isoelectric focusing gel electrophoresis and immunoblot; 1% NP40 lysates resolved by charge in the first dimension and by non-reducing SDS-PAGE in the second, immunoblot with anti-V5; monomers and dimers compared by pI

Substance: HLA-B*27:05 class I heavy chain (HC), V5 tagged (natural protein)
- stoichiometry N [1]: 2
- stoichiometry N [2]: 2

Substance: HLA-B*27:05 single chain trimer (SCT): NP 383-391 peptide - linker - human beta-2 microglobulin - linker - HLA-B*27:05 heavy chain - V5 (from UniProt P61769 21-119) (peptide-MHC)
- stoichiometry N [3]: 2
- stoichiometry N [4]: 2
